Assay results published in patent publication US20190083583A1 (Alexion, published 2019).

Biological target: M6P receptor on the surface of human MPS IIIB skin fibroblasts (human)
Test: cell-based or functional assay

B1: recombinant human N-acetyl-alpha-D-glucosaminidase (rhNaGlu) produced in transgenic avian (Gallus) egg white (enzyme)
chain: DEAREAAAVRALVARLLGPGPAADFSVSVERALAAKPGLDTYSLGGGGAARVRVRGSTGVAAAAGLHRYLRDFCGCHVAWSGSQLRLPRPLPAVPGELTEATPNRYRYYQNVCTQSYSFVWWDWARWEREIDWMALNGINLALAWSGQEAIWQRVYLALGLTQAEINEFFTGPAFLAWGRMGNLHTWDGPLPPSWHIKQLYLQHRVLDQMRSFGMTPVLPAFAGHVPEAVTRVFPQVNVTKMGSWGHFNCSYSCSFLLAPEDPIFPIIGSLFLRELIKEFGTDHIYGADTFNEMQPPSSEPSYLAAATTAVYEAMTAVDTEAVWLLQGWLFQHQPQFWGPAQIRAVLGAVPRGRLLVLDLFAESQPVYTRTASFQGQPFIWCMLHNFGGNHGLFGALEAVNGGPEAARLFPNSTMVGTGMAPEGISQNEVVYSLMAELGWRKDPVPDLAAWVTSFAARRYGVSHPDAGAAWRLLLRSVYNCSGEACRGHNRSPLVRRPSLQMNTSIWYNRSDVFEAWRLLLTSAPSLATSPAFRYDLLDLTRQAVQELVSLYYEEARSAYLSKELASLLRAGGVLAYELLPALDEVLASDSRFLLGSWLEQARAAAVSEAEADFYEQNSRYQLTLWGPEGNILDYANKQLAGLVANYYTPRWRLFLEALVDSVAQGIPFQQHQFDKNVFQLEQAFVLSKQRYPSQPRGDTVDLAKKIFLKYYPRWVAGSW
modifications: N-linked glycans carrying mannose-6-phosphate (3.2 moles of M6P per mole of protein), mannose and GlcNAc; sites not stated
  NaGlu enzymatic activity in human MPS IIIB fibroblasts after 24 h with 0.3 ug/mL rhNaGlu (cellular uptake): ~50 % of wild-type fibroblast activity
  NaGlu enzymatic activity in human MPS IIIB fibroblasts after 24 h with 1 ug/mL rhNaGlu (cellular uptake): ~4 fold of wild-type fibroblast activity
  NaGlu enzymatic activity in human MPS IIIB fibroblasts after 24 h with 30 ug/mL rhNaGlu (cellular uptake): ≥ 40 fold of wild-type fibroblast activity
